B1: RING finger and CHY zinc finger domain-containing protein 1 (Homo sapiens), Q96PM5 (parent)
chain: MAATAREDGASGQERGQRGCEHYDRGCLLKAPCCDKLYTCRLCHDNNEDHQLDRFKVKEVQCINCEKIQHAQQTCEECSTLFGEYYCDICHLFDKDKKQYHCENCGICRIGPKEDFFHCLKCNLCLAMNLQGRHKCIENVSRQNCPICLEDIHTSRVVAHVLPCGHLLHRTCYEEMLKEGYRCPLCMHSALDMTRYWRQLDDEVAQTPMPSEYQNMTVDILCNDCNGRSTVQFHILGMKCKICESYNTAQAGGRRISLDQQ

Variants of: B1
Conditions: with kcc2a_human CAMK2A

Variant	effect of a mutation on the interaction
MAATAREDGASGQERGQRGCEHYDRGCLLKAPCCDKLYTCRLCHDNNEDHQLDRFKVKEVQCINCEKIQHAQQTCEECSTLFGEYYCDICHLFDKDKKQYHCENCGICRIGPKEDFFHCLKCNLCLAMNLQGRHKCIENVSRQNCPICLEDIHASRVVAHVLPCGHLLHRTCYEEMLKEGYRCPLCMHSALDMTRYWRQLDDEVAQTPMPSEYQNMTVDILCNDCNGRSTVQFHILGMKCKICESYNTAQAGGRRISLDQQ [T154A]	disrupting interaction
MAATAREDGASGQERGQRGCEHYDRGCLLKAPCCDKLYTCRLCHDNNEDHQLDRFKVKEVQCINCEKIQHAQQTCEECSTLFGEYYCDICHLFDKDKKQYHCENCGICRIGPKEDFFHCLKCNLCLAMNLQGRHKCIENVSRQNCPICLEDIHTARVVAHVLPCGHLLHRTCYEEMLKEGYRCPLCMHSALDMTRYWRQLDDEVAQTPMPSEYQNMTVDILCNDCNGRSTVQFHILGMKCKICESYNTAQAGGRRISLDQQ [S155A]	disrupting interaction

Reference: IntAct's records for PubMed 17568776
